In patent US7291601B1, “Arginine-rich anti-vascular endothelial growth factor peptides that inhibit growth and metastasis of human tumor cells by blocking angiogenesis” (Korea Greencross Corp., priority 1999, dated 2007):
Where “and” joins values, the source holds several entries; their conditions need not be identical. Identical values can stand only once. Entries after “also recorded” stand apart in the source; their conditions may differ. Like-named read-outs stand apart in the source and are kept apart here. Each block holds one molecule with its values, some of them ahead of it.

How the values were obtained:
[1] = molecular target: VEGF receptors present on the surface of HUVEC (human umbilical vein endothelial cells) (human); assay: Scatchard analysis of 125I-VEGF165 binding to HUVEC; the kind of receptor at about 2,000 per cell
rabbit corneal domes = assay: Rabbit corneal dome angiogenesis induced by VEGF; assay type: in vivo; conditions: VEGF 10 ng with 1 μg peptide, 16 days after operation
Procedure: To confirm the test results obtained from egg CAM, an experiment was performed using rabbit corneal domes for in vivo angiogenesis testing. New Zealand male rabbits weighing 3 kg (SLC, Japan) were subjected to intramuscular ketamine anesthesia (44 mg/kg), followed by dissecting the corneal domes to a length of 3 mm by use of an operating knife (Bard-Parker—#11). […] 16 days after the operation, angiogenesis was obviously observed and photographs were taken of blood vessels newly formed in the corneal dome (Nikon, FS-2, Japan).

[2] = system: HM7 (human colon carcinoma cell line); assay: Liver metastasis of HM7 cells transplanted into the spleen of nude mice; assay type: in vivo
Source text: In order to conduct an experiment concerning the metastasis of cancer cells to the liver, cancerous cells were transplanted into the spleen. In this regard, after being anesthetized with diethyl ether, 4-week-old male mice (athymic nude mice, BALB/c/nu/nu, Charles River, Japan) underwent flank incision. […] Four weeks after the injection, the liver was excised from each mouse and measured for weight and the size and number of metastatic nodules formed. Each test group was composed of 6-7 mice. In a student's t-test, a p value less than 0.05 was regarded as being statistically significant. In the test using tetrazolium dye (cell titer 96 Non-radioactive Proliferation Assay Kit, Promega), each peptide was evaluated to have no influence on the growth of the cancer cells (5×10^3 cells/well), so that the possibility that the toxicity of the peptide themselves might inhibit the growth and metastasis of cancer cells could be excluded.

[3] = system: HM7 (human colon carcinoma cell line); assay: Subcutaneous HM7 tumor growth in athymic nude mice; assay type: in vivo; conditions: after 15 days of subcutaneous injection
Procedure: From the next day, a solution of each peptide in PBS (0.5 μg/100 μl/day) was subcutaneously injected to the mice for 15 days. Sizes of the tumors thus formed were periodically measured while tumor volumes were calculated according to the following formula: Tumor Size=0.5×(Diameter)^2×length

[4] = system: egg CAM (chorioallantoic membranes); assay: Egg CAM assay, angiogenesis induced by VEGF; assay type: in vivo
Procedure: Fertilized eggs (Pulmuwon, Korea) were incubated at 37° C. under a humidity of 90%. After three days of culturing, the eggs were deprived of about 2 ml of albumin. After four days, eggs were partially deprived of the sheath to make a window with a size of 2×2 cm.
After VEGF (10 ng/egg) was mixed with various amounts of peptides or other samples, 3 μl of each mixture was dropped onto ¼ fraction pieces of thermanox coverslips (Nunc) and dried. The pieces were placed on CAM of 9-day embryonic eggs.
Two days later, the samples were independently observed under anatomical microscopes by two different persons to determine whether new blood vessels are induced by the dropped samples or not. In this regard, the experiment was repeated at least three times using 10 or more eggs per sample and the results are given in Table 5, below.

[5] = molecular target: VEGF receptors present on the surface of HUVEC; assay: Binding of 125I-labeled VEGF165 to HUVEC, Scatchard analysis; set-up: species or system human
Procedure: First, HUVEC (human umbilical vein endothelial cells) (Clonetics) were placed on gelatin-coated 100 mm dishes (Falcon) containing a vascular endothelial cell culture medium (Medium 199+20% BCS, 5 μg/ml of heparin, 6 μg/ml of endothelial cell growth supplement, 5 ng/ml of basic fibroblast growth factor) and cultured at 37° C. in a CO2 incubator for animal cell culture. After a certain period of time, the cells were treated with trypsin/EDTA. After centrifugation, the cells harvested were suspended in a fresh, vascular endothelial cells culture medium and aliquoted at a density of 5×10^4 cell/well to a 24 well plate (Costar Co.). […] Thereafter, to quantitatively determine the amount of the labeled VEGF which bound to receptors present on the surface of the vascular endothelial cells, the cells were treated with 0.5 ml of a lysis solution (20 mM Tris-HCl, pH 7.4/1% TritonX-100) for 20 min, followed by measuring the resulting lysate for radioactivity with the aid of a γ-counter. As for the non-specific binding, it was determined from a cell group cultured in the presence of a mixture of the labeled VEGF and non-labeled VEGF in a molar ratio of 1:100. […]
The measurement results are shown in FIGS. 1a and 1b in which radioactivity is plotted versus time and concentration, respectively.

[6] = system: HT1080 (human fibrosarcoma); assay: Egg CAM assay, angiogenesis induced by VEGF-secreting cancer cells; assay type: in vivo; conditions: egg CAM, 10^5 HT1080 cells/egg with 0.1 μg peptide; for Angiogenic activity(%): (standard deviation)
Procedure: An experiment using egg CAM was carried out to confirm the inhibitory activity of the screened peptides against the angiogenesis induced by cancer cells, which secrete VEGF. Fertilized eggs were deprived of albumin and windows were formed on the eggs as in above. 10^5 cells of HT1080 (human fibrosarcoma) were mixed with 7.5 μg of Type I collagen (rat tail, Beckton Dickinson, USA) within a volume of 5 μl and dropped onto ¼ fraction pieces of Thermanox coverslips to give collagen sponges. After being covered with the collagen sponges, 10-day embryonic egg CAM was incubated at 37° C. for 3 days. Blood vessels induced by the cancer cells were observed and photographed as in above (see Table 6 and FIG. 12).

VEGF = molecular target: T1, VEGF (Homo sapiens, UniProt P15692); assay: Inhibition of 125I-labeled VEGF binding to its receptors on HUVEC; conditions: 10 μM peptide (FIG. 6)
T1 sequence (P15692 27-191 isoform P15692-4): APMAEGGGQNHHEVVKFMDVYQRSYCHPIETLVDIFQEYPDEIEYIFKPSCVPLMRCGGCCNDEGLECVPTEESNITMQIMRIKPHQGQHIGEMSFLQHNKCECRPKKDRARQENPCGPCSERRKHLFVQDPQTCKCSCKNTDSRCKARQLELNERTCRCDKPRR
Procedure: Then, the cells were transferred to a medium (Medium 199/25 mM HEPES, pH 7.4/0.1% bovine serum albumin) containing 0.2 ng of ^125I-labeled VEGF and various concentrations of peptides or combinatorial peptide libraries and reacted at 4° C. for 3 hours. The cells were washed twice with the same medium and once with PBS containing 0.1% albumin to remove the labeled VEGF which still remained uncombined. Thereafter, to quantify the labeled VEGF which bound to receptors present on the surface of the vascular endothelial cells, the cells were treated with 0.5 ml of a lysis solution (20 mM Tris-HCl, pH 7.4/1% TritonX-100) for 20 min, followed by measuring the resulting lysate for radioactivity with the aid of a γ-counter.
The sequence of each peptide was indirectly decided through the analysis of amino acid compositions and its concentration was determined, after which 12 peptides were assayed for antagonism toward VEGF binding at various concentrations (1, 4, 10, and 20 μM/sequence).

[7] = molecular target: T2, ^125I-labeled VEGF165, P15692; assay: inhibition of 125I-VEGF binding to its receptors on HUVEC, gamma counting
T2 chain: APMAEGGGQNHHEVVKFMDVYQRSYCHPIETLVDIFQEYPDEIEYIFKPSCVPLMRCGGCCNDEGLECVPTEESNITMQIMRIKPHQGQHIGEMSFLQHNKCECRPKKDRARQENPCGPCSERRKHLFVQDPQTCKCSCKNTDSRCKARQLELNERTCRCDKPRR

[8] = molecular target: T3, VEGF (R&D systems), P15692; assay: cell-based or functional assay
T3 chain: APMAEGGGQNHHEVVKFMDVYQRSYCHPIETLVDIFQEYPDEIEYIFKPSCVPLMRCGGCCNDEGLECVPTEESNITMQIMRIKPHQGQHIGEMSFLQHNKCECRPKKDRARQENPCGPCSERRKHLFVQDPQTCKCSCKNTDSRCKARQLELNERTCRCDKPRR

[9] = molecular target: T4, VEGF secreted from HT1080 human fibrosarcoma cells (human), P15692; assay: cell-based or functional assay
T4 chain: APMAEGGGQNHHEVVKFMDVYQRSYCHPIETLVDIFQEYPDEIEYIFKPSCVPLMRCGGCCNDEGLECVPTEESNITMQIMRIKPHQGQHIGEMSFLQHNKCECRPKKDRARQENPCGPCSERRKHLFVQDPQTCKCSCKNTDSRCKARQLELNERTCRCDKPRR

[10] = molecular target: T2, ^125I-labeled VEGF165, P15692; assay: 125I-VEGF on plate-fixed peptide, competition; KD computed from the IC50
[11] = VEGF 10 ng/egg alone or with 1 μg sample
[12] = VEGF 10 ng/egg alone or with 1 μg sample, (standard deviation)

Molecule: EEFDDA: control peptide of an amino acid sequence EEFDDA [reference compound]
VEGF-induced angiogenesis in the rabbit corneal dome (rabbit corneal domes): had no influence on the VEGF-induced angiogenesis; also recorded: obvious angiogenesis
metastasis of cancer cells versus tumor injected alone ([2]; mouse, in vivo): No difference in metastasis
effect on tumor size / growth of human colon carcinoma cells in mice [3]: no effects

Molecule: protamine [reference compound]
Angiogenic activity eggs/total eggs [4, 11]: 5/26
Angiogenic activity(%) [4, 12]: 18.8(4.1) % and 18.4(4.1) %
Angiogenic activity(%) ([4]; VEGF with protamine 50 μg/egg as stated in text): about 18.8%

Molecule: ^125I-labeled VEGF: radioactive iodine-labeled VEGF165 used as ligand
Kd ([5]; receptor density about 2,000 per cell, read-out: dissociation constant (KD), first kind of receptor): 3 pM
Kd ([5]; receptor density about 6,000 per cell, read-out: dissociation constant (KD), other kind of receptor): 50 pM

Molecule: VEGF
Angiogenic activity eggs/total eggs [4, 11]: 9/27
Angiogenic activity(%) [4, 12]: 33.6% and 33.6(3.8) %

B3: Table 4 peptide 2 (RRKRKR) (peptide)
peptide: RRKRKR
modifications: not checked
IC50 [7]: 6 µM

B5: peptide of sequence 1 (SEQ ID NO: 1) (NH2-Arg-Arg-Lys-Arg-Arg-Arg-CONH2) (peptide)
peptide: H-RRKRRR-NH2
Angiogenic activity(%), egg CAM, VEGF 10 ng + peptide 1 µg (VEGF alone 33.6, water 10.8) [8]: 15.6%
Angiogenic activity(%), egg CAM, HT1080 cancer cells + peptide 0.1 µg (cancer cell alone 76.0, no treatment 18.5) [9]: 36%
Kd [10]: 5 µM
IC50 [7]: 2 µM

B7: Table 4 peptide 4 (RKRRKR) (peptide)
peptide: RKRRKR
modifications: not checked
IC50 [7]: 8.5 µM

Continued, in another order:

Kd [1]: 3 pM
Molecule: ^125I-labeled VEGF165 (from UniProt P15692 27-191) (ligand)

inhibition between labeled VEGF and its receptors (VEGF): no inhibition was observed
Molecule: KKKKKK: control peptide consisting of only lysine [reference compound]
Angiogenic activity eggs/total eggs [6]: 14/22
Angiogenic activity(%) [6]: 59.0(1.4) %
Angiogenic activity(%) ([6]; listed as control peptide): 59%
Angiogenic activity eggs/total eggs [4, 11]: 8/25
metastasis, % of the control group to which only PBS was injected ([2]; weak inhibitory activity, measure not specified): about 80%

IC50 [7]: 7.8 µM
B1: Table 4 peptide 10 (RKRRRR) (peptide)
peptide: RKRRRR
modifications: not checked

IC50 [7]: 6.5 µM
B2: Table 4 peptide 7 (RKKRRR) (peptide)
peptide: RKKRRR
modifications: not checked

Angiogenic activity(%), egg CAM, VEGF 10 ng + peptide 1 µg (VEGF alone 33.6, water 10.8) [8]: 15.6%
Angiogenic activity(%), egg CAM, HT1080 cancer cells + peptide 0.1 µg (cancer cell alone 76.0, no treatment 18.5) [9]: 41%
Kd [10]: 22 µM
IC50 [7]: 3.8 µM
B4: peptide of sequence 3 (SEQ ID NO: 3) (NH2-Arg-Arg-Arg-Arg-Arg-Arg-CONH2) (peptide)
peptide: H-RRRRRR-NH2

Angiogenic activity(%), egg CAM, VEGF 10 ng + peptide 1 µg (VEGF alone 33.6, water 10.8) [8]: 15.6%
Angiogenic activity(%), egg CAM, HT1080 cancer cells + peptide 0.1 µg (cancer cell alone 76.0, no treatment 18.5) [9]: 43%
Kd [10]: 2 µM
IC50 [7]: 3.4 µM
B6: peptide of sequence 2 (SEQ ID NO: 2) (NH2-Arg-Lys-Lys-Arg-Lys-Arg-CONH2) (peptide)
peptide: H-RKKRKR-NH2
